T1: Human PTK7 (CCK4 protein, ECD, His Tag, Sino Biological) (human, UniProt Q13308 31-704)
T1 construct: extracellular domain; Bought protein; also called hPTK7; HPTK7; not shown: His tag
T1 sequence (looked up): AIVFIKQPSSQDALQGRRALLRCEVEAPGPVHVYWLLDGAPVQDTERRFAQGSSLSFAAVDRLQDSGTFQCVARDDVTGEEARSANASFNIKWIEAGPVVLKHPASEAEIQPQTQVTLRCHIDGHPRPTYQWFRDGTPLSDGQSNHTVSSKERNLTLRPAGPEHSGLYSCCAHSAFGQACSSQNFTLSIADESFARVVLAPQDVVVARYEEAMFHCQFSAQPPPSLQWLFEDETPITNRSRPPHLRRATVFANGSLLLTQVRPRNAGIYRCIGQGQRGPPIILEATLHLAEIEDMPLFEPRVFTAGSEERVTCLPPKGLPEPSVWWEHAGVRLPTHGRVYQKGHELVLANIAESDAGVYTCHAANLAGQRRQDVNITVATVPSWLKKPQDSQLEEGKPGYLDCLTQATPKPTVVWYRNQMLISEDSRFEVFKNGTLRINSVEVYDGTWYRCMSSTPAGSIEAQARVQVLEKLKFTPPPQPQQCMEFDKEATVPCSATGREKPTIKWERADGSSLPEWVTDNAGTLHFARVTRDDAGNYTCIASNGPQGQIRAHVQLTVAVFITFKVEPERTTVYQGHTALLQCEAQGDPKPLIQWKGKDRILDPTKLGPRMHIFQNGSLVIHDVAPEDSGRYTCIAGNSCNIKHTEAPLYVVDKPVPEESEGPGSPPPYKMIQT

T2: cynomolgus PTK7 (CCK4 protein, ECD, His Tag, Sino Biological) (cynomolgus, UniProt A0A2K5VNI5 39-712)
T2 construct: extracellular domain; Bought protein; also called cPTK7; cyno PTK7; not shown: His tag
T2 sequence: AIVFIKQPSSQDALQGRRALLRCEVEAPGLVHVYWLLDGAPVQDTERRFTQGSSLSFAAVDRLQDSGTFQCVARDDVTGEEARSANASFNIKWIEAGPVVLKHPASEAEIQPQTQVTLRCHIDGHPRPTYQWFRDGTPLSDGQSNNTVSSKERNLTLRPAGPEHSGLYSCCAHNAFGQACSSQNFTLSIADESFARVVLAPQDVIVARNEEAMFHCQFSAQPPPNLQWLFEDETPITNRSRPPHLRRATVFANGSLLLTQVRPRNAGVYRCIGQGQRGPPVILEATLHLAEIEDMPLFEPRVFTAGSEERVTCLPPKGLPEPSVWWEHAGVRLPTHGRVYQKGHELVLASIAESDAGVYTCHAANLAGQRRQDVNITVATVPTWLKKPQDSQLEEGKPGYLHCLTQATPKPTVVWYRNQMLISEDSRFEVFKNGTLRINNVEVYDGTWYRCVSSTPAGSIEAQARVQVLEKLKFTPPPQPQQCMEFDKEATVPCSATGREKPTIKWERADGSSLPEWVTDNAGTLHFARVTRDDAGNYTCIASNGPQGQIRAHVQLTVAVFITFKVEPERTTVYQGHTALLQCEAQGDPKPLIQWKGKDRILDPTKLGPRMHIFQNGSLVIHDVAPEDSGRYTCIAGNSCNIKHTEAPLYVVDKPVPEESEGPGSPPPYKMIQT

B1: B12-3 (antibody, human IgG1, kappa, V domains shown)
VH: QVQLVQSGAEVKKPGASVKVSCQASGYRFSNFVIHWVRQAPGQRFEWMGWINPYNGNKEFSAKFQDRVTFTADTSANTAYMELRSLRSADTAVYYCARVGPYSWDDSPQDNYYMDVWGKGTTVIVSS
VL: EIVLTQSPGTLSLSPGERATFSCRSSHSIRSRRVAWYQHKPGQAPRLVIHGVSNRASGISDRFSGSGSGTDFTLTITRVEPEDFALYYCQVYGASSYTFGQGTKLERKR
notes: also called B12 (VI) conjugated with linker-drug 3; isotype control ADC
B2: 12C6a-3 (antibody, human IgG1, kappa, V domains shown)
VH: VQLVQSGGGLVHPGGSLRLSCAGSGFTFSTYLMYWVRQAPGKTLEWVSAIGSGGDTYYADSVKGRFTISRDNAKNSLYLQMNSLRAEDMAVYYCARGLGYWGQGTLVTVSS
VL: DIQMTQSPSSLSASVGDRVTITCRASQGISSWLAWYQQKPEKAPKSLIYAASSLQSGVPSRFSGSGSGTDFTLTISSLQPEDFATYYCQQYNSYPYTFGQGTKLEIKR
modifications: heavy-chain N-glycan trimmed to core GlcNAc, extended with 6-N3-GalNAc and clicked to BCN-HS-PEG2-HS-(va-PAB-Ex)2 (linker-drug 3, exatecan); average DAR 3.90
notes: Antibody-drug conjugate of IgG 12C6a (V)
B3: 4D5-3 (antibody, human IgG1, kappa, V domains shown)
VH: QVQLVESGGGVVQPGRSLRLSCAASGFTFSSYAFHWVRQAPGKGLEWVAVISYDGSIKYYADSVKGRFTISRDNSKNTLYLQMNSLRAEDTAVYYCARTYYFDYWGQGTLVTVSS
VL: EIVLTQSPDFQSVTPKEKVTITCRASQSIGSSLHWYQQKPDQSPKLLIKYASQSFSGVPSRFSGSGSGTDFTLTINSLEAEDAAAYYCHQSSSLPITFGQGTRLEIKR
modifications: heavy-chain N-glycan trimmed to core GlcNAc, extended with 6-N3-GalNAc and clicked to BCN-HS-PEG2-HS-(va-PAB-Ex)2 (linker-drug 3, exatecan); average DAR 3.91

Experiments:
[1] = biological target: T1, Human PTK7 (CCK4 protein, ECD, His Tag, …); assay: ELISA: His-tagged hPTK7 on nickel plate, ADC at 8 µg/mL (Example 25), goat anti-human IgG-HRP, TMB, absorbance at 652 nm, background-corrected
[2] = biological target: T2, cynomolgus PTK7 (CCK4 protein, ECD, His …); assay: ELISA: His-tagged PTK7 on nickel plate, ADC at 8 µg/mL (Example 25), goat anti-human IgG-HRP, TMB, absorbance at 652 nm, background-corrected
Experimental: (§1) Nickel NTA plates (Pierce™ Nickel coated plated, ThermoScientific™) were washed three times prior to use. Human PTK7 (CCK4 protein, ECD, His Tag, Sino Biological), cynomolgus PTK7 (CCK4 protein, ECD, His Tag, Sino Biological) and Rat PTK7 (His Tag, Acro Biosystems) were dissolved at a concentration of 0.05 μg/mL in 0.1% BSA in PBS (PBA). 100 μL was added to each well and incubated while shaking for 1 hour at room temperature. After removal, the plate was washed 3× with 0.05% Tween-20 in PBS (washing buffer). ADCs were diluted in 0.1% PBA to a final concentration of 8 μg/mL and 100 μL was added to each well (in triplo). ADCs were incubated for 1 h at room temperature. Prior to the addition of 100 μL 1:1000 dilution of secondary antibody (Goat anti-human IgG, HRP conjugate, Invitrogen) the plate was washed 3× with washing buffer. The plate was incubated again for 1 h at room temperature and subsequently washed 3× with washing buffer and 3× with PBS. Finally, 100 μL TMB ELISA substrate (1 Step™ Turbo TMB ELISA substrate, ThermoScientific™) was added and incubated for 1 minute.

[3] = biological target: T1, Human PTK7 (CCK4 protein, ECD, His Tag, …); assay: as above
Experimental: as §1

[4] = biological target: T3, Rat PTK7 (His Tag, Acro Biosystems) (rat, UniProt A0A8I6ALM9 40-713); assay: as above
T3 construct: Bought protein; also called rPTK7; not shown: His tag

Row | Binder | binding result [1] | binding result [2] | binding result [3] | binding result [4]
1 | B1 | no binding (tested: 8 µg/mL) |  |  | 
2 | B2 |  | no binding (tested: 8 µg/mL) | no binding (tested: 8 µg/mL) | no binding (tested: 8 µg/mL)
3 | B3 |  |  | binds | no binding (tested: 8 µg/mL)

Reference: patent US20260248939A1 (SYNAFFIX B V, published 2026)
